The target in assay [1] is CA125抗原 (Cancer Antigen 125) (human) (UniProt Q8WXI7). Description: SPR, Biacore T100, antigen on chip, 1:1 fit (repeats Table 1). On the technique in general: SPR reads the build-up and loss of mass on a sensor chip optically.
For assay [2] the target is unchanged. Description: SPR, Biacore T100, antigen coupled to chip, nanobody as analyte, 1:1 fit.
Assay [3] shares this target. Description: SPR, Biacore, comparator nanobody listed in Table 1.
Assay [4] shares this target. Description: SPR, Biacore T100, antigen coupled to chip, bispecific as analyte, 1:1 fit.

B1: 抗CA125纳米抗体4A4 (VHH)
VHH: QVQLQESGGGLVQAGTSLTLSCAASERTFSAYDMNWYRQAPGKERELVAAISWRGPITYVADSVKGRFTISRDNAKNTVYLQMNSLKPEDTAIYYCNAEPGPGYVGSYALSYWGQGTQVTVSS
The Kd is a measure of binding affinity in units of concentration. The low end stands for higher affinity, the high end for lower affinity. Regarding B1, the Kd in assay [1] and in assay [2] was 3590 pM throughout.

B2: VHH-CA125-4H10 (VHH, from another filing)
VHH: ESGGGLVQPGGSLRLSCAASEFTLEHYAIGWFRQAPGKEREGVGCISSSQENTYVEDSAKGRFTISRDNVKNTVYLQMNSLKPEDTAVYYCAARRFGLCVISPGYFEVWGQGT
In assay [3], B2 registered a Kd of 285 pM.

B3: VHH-CA125-2H7 (VHH, from another filing)
VHH: ESGGGLVQAGGSLRLSCERSDAPHSPYTMGWFRQAPGKDREFVATITWSGGTTLYADSVKGRFTISRGIAKNTAYLQMNTLKPEDTAVYYCAVGLGGGAYREDHQYDYWGQGT
Consider B3, for which, in assay [3], the Kd stood at 718 pM.

B4: 抗CA125双特异性纳米抗体 4A4-(G4S)4-6C1 (bispecific antibody)
chain: QVQLQESGGGLVQAGTSLTLSCAASERTFSAYDMNWYRQAPGKERELVAAISWRGPITYVADSVKGRFTISRDNAKNTVYLQMNSLKPEDTAIYYCNAEPGPGYVGSYALSYWGQGTQVTVSSGGGGSGGGGSGGGGSGGGGSQVQLQESGGGLVQAGGSLRLSCAASGSMFSINAMRWYRQAPGKQRELVAAITSGGSTNYADSVKGRFTISRDNAKNTMYLQMNSLKPEDTAVYYCNAAQTRLPNSADRYEYDYWGQGTQVTVSS
With B4, the Kd in assay [4] was 76.8 pM.

B5: 抗CA125纳米抗体6C1 (VHH)
VHH: QVQLQESGGGLVQAGGSLRLSCAASGSMFSINAMRWYRQAPGKQRELVAAITSGGSTNYADSVKGRFTISRDNAKNTMYLQMNSLKPEDTAVYYCNAAQTRLPNSADRYEYDYWGQGTQVTVSS
For the molecule B5, the Kd in assay [1] and in assay [2] was 198 pM in each case.

B6: VHH-CA125-4C1 (VHH, from another filing)
VHH: ESGGGLVQAGGSLRLSCAASGNTFNINAMGWYRQAPGKQRELVATITSGGSTNYADSVKGRFTISRDNAKNTVFLQMNSLKPEDTAVYYCNAVQTRLPNSPDRYEYDYWGQGT
Turning to B6, the Kd in assay [3] came to 635 pM.

The values above are taken from patent CN114106184A.
